This is an account of results in patent publication US20140294817A1.

One test deals with Fcγ-receptor IIb (mice) (UniProt P08101). In words: flow cytometry saturation binding on HeLa cells expressing RFP-tagged FcγRIIb (FIG. 61B, right panel).
The next test has as its target Fcγ-receptor III (mice) (UniProt P08508). As to the kind of experiment: flow cytometry saturation binding on HeLa cells expressing RFP-tagged FcγRIII (FIG. 61C, right panel).
Another test deals with Fcγ-receptor IV (mice). In words: flow cytometry saturation binding on HeLa cells expressing RFP-tagged FcγRIV (FIG. 61D, right panel).
Fcγ-receptor IV (mice), sequence (A0A0B4J1G0 21-249): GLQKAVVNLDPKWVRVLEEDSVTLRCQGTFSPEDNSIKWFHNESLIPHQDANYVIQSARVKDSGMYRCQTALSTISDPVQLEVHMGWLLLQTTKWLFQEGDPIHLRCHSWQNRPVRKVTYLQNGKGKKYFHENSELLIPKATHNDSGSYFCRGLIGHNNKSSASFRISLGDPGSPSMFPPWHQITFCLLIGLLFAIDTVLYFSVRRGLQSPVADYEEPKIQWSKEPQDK
The next test deals with Fcγ-receptor I (mice) (UniProt P26151). In words: flow cytometry saturation binding on HeLa cells expressing RFP-tagged FcγRI (FIG. 61A, right panel).
Fcγ-receptor I (mice), sequence (P26151 25-404): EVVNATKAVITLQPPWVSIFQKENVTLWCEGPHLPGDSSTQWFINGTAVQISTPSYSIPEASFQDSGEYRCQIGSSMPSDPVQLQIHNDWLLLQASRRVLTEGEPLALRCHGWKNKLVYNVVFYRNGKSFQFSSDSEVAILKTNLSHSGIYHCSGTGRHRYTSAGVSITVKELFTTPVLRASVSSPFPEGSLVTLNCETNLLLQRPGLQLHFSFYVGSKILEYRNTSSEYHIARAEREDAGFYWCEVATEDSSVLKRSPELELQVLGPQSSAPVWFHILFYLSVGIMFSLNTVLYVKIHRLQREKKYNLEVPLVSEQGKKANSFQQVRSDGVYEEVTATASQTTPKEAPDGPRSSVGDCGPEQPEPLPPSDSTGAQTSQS

Fcγ-receptor IIb (mice), sequence (P08101 30-330): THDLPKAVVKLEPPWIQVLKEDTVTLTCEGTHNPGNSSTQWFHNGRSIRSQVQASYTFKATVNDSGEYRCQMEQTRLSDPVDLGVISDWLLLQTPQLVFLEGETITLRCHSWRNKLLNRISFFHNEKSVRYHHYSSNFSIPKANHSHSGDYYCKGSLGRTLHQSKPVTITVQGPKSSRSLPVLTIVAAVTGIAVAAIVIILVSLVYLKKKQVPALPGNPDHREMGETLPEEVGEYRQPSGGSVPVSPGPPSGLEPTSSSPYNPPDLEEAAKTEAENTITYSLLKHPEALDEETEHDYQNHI
Fcγ-receptor III (mice), sequence (P08508 31-261): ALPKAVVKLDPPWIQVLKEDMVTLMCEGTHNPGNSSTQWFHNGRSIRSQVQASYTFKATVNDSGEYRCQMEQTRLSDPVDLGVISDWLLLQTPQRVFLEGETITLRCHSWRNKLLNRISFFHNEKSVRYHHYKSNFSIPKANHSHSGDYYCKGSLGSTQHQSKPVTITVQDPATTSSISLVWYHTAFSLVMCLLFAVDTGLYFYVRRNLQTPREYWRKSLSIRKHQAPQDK

Turning to whole rabbit IgG (antibody), the Kd turned out to be 609 nM with Fcγ-receptor IIb (mice), 2330 nM with Fcγ-receptor III (mice), 1220 nM in the test with Fcγ-receptor IV (mice) and 201 nM in the test with Fcγ-receptor I (mice).
